Earlier results, collected in publication PMC9360543.

Legend:
[1] = target: Integrin αvβ5 (Homo sapiens) (UniProt P06756); test: solid-phase ELISA-based binding assay
GRP78 (Homo sapiens) = GRP78 (Homo sapiens) (UniProt P11021)
Chain of UniProt P11021 (P11021 19-654): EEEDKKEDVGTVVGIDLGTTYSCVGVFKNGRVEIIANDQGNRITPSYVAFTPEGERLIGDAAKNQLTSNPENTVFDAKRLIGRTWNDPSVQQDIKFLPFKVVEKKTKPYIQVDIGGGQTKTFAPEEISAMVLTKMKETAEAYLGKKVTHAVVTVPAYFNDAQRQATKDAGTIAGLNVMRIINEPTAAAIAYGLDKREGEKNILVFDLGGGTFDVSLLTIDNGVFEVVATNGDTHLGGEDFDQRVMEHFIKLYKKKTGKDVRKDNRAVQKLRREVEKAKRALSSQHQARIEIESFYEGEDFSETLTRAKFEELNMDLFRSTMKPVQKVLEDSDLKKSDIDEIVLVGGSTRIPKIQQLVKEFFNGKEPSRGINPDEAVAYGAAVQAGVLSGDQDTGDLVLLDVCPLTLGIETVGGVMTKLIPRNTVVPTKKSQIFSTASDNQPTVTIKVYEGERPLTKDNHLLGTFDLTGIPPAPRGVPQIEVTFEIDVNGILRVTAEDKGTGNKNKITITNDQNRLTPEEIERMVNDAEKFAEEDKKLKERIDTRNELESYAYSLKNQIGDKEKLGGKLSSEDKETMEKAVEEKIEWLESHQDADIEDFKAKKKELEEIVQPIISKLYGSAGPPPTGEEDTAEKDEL

Chain of UniProt P06756 (P06756 31-992, chain 1 of 2): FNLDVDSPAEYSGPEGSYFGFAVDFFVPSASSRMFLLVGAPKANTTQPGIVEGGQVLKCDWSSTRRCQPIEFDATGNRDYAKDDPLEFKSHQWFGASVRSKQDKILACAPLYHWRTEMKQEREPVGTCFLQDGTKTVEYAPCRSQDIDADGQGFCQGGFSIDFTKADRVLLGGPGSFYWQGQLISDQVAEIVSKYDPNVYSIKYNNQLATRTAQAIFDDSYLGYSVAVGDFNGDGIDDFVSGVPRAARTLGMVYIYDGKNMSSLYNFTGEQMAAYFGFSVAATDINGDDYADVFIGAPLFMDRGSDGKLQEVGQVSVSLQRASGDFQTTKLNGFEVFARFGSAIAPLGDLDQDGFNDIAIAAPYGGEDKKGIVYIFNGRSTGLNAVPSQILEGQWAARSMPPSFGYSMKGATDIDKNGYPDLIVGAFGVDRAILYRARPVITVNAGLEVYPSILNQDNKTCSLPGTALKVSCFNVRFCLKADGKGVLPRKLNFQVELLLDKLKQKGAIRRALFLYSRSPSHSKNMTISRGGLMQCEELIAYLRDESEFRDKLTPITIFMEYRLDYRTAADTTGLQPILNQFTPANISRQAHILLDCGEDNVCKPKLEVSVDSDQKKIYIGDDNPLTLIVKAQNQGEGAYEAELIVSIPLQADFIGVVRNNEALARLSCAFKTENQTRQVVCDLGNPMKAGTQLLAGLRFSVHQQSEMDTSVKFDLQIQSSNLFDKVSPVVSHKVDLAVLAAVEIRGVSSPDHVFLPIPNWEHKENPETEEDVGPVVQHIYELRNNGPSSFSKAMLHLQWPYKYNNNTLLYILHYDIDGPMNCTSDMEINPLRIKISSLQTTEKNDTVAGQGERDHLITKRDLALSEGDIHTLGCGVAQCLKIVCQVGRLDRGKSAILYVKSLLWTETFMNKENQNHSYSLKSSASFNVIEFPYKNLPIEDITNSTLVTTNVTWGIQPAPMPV
Chain of UniProt P06756 (P18084 24-719, chain 2 of 2, further chain): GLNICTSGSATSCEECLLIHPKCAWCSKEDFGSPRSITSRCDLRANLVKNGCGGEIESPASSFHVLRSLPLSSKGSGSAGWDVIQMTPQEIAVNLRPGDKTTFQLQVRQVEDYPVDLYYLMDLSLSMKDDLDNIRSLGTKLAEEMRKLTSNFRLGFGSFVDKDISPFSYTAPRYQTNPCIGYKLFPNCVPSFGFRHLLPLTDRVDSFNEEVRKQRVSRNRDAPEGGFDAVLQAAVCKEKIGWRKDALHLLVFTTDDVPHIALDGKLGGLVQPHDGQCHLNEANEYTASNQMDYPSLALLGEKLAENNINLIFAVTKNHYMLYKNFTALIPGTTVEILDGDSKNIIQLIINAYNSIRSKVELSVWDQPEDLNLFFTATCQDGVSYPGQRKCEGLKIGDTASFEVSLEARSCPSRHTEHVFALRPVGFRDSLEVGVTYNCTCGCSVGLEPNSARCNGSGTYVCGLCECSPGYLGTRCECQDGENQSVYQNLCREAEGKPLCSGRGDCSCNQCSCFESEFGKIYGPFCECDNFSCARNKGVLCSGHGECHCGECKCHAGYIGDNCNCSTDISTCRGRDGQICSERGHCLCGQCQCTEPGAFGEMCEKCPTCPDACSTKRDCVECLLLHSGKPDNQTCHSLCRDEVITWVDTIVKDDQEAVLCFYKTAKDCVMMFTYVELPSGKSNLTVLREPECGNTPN

Kd [1]: 40 µM
Kd (GRP78 (Homo sapiens)): 0.00858 µM
Substance: Isthmin-1 (from UniProt B1AKI9)
